Assay [1] concerns the target DDA1-DDB1ΔB-DCAF15Δpro triplex (human) (UniProt Q66K64). Nature of the assay: BLI. A general note: Biolayer interferometry detects binding as a change in optical thickness at a sensor tip.
Assay [2] has the same target. Nature of the assay: ITC.

Sequence of RRM1-RRM2 domain of RBM39 (R1R2) (Q14498 150-331): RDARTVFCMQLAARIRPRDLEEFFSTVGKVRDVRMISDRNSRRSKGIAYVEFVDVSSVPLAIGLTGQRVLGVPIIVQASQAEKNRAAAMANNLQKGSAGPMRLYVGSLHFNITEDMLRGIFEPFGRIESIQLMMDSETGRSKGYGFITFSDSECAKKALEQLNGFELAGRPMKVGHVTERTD

What is called Kd is the free concentration of one partner at which half of the binding sites on the other are occupied at equilibrium, for simple one-to-one binding. As for “R1R2(M265L) (from UniProt Q14498 150-331) (domain or fragment)”, the Kd in assay [1] is 1.2 µM. For the substance “RRM1-RRM2 domain of RBM39 (R1R2) (from UniProt Q14498 150-331) (domain or fragment)”, the figures for the dissociation constant Kd in assay [1] and in assay [2] were 4.6 µM and 6.4 µM, respectively.

Values taken from doi:10.1101/758409.
